Measured values from publication PMC4277623, “Synthesis and Preliminary Evaluation of a New ^99mTc Labeled Substance P Analogue as a Potential Tumor Imaging Agent” (Iranian Journal of Pharmaceutical Research : IJPR, 2015).
Read-outs that look alike come from different tables or passages of the source.

Legend:
[1] = Biodistribution in tumor bearing nude mice; type: in vivo; conditions: male, nude, mouse, iv, total radioactivity, mean ± SEM; for tissue uptake at 1 h: 1 h p.i.; for tissue uptake at 4 h: 4 h p.i.
Protocol: (§1) Male albino mice in a weight range of18-24 g were used for normal mice treatments and malenude mice (6 to 8 weeks old) were used for in-vivo tumor treatments. The mice were housed at controlled room temperature (25 °C) in a 12 h light/12 h dark schedule. They were kept in standard cages with free access to food and water except during the experiments. The nude mice were grown and kept in isolated sterile condition. All animal experiments were carried out in compliance with our institutional ethical guidelines.
U373MG cells were grown and harvested by trypsinization. Cells were washed twice with fresh RPMI medium containing 20% FBS and centrifuged for 5 min at 200 g. Pellets were resuspended in RPMI medium containing 20% FBS. A 100 µL suspension of 4 × 10^6 cells was subcutaneously injected on the right flank of each nude mouse. After four weeks, the size of inducted tumors was suitable for biodistribution study and mice were injected via the tail vein with radiolabeled peptide in two groups in the presence and absence of block. They sacrificed at 1 h and 4 h time points to assay the biodistribution. They were dissected and % ID/g of tissues was measured as described above. Finally, tumor-to-organ ratios were calculated.

[2] = Biodistribution in normal mice; type: in vivo; conditions: for tissue uptake at 1 h / tissue uptake at 4 h / tissue uptake at 24 h: male, mouse, iv, total radioactivity
Protocol: as §1
Freshly labeled ^99mTc-HYNIC-Tyr^8-Met(O)^11-SP (purity>98%) was diluted to 3.3 nmol/mL with normal saline and a dose of 800 µCi/ 330 pmol in 100 µL was injected to each mouse via the tail vein. Also agroup of three animals (blocked group) were given150 µg of SP in 50 µL salineco-injected with the radiopeptide to determine the non-specific biodistribution of the radiopeptide by blocking the receptor-positive organs. After 1, 4, and 24 h post injection the mice in groups of three animals were sacrificed and organs of interest were excised. All organs and tissues were weighed, and the radioactivity was determined by gamma counter. Results were expressed as percentage of injected dose per gram (% ID/g) of tissue.

[3] = spleen, Spleen, blocked tumor bearing nude mice (excess SP), read-out: %ID/g Spleen
[4] = spleen, Spleen, tumor bearing nude mice, i.v., n=3, read-out: %ID/g Spleen
[5] = stomach, Stomach, blocked tumor bearing nude mice (excess SP), read-out: %ID/g Stomach
[6] = stomach, Stomach, tumor bearing nude mice, i.v., n=3, read-out: %ID/g Stomach

CC(C)C[C@H](NC(=O)CNC(=O)[C@H](Cc1ccc(O)cc1)NC(=O)[C@H](Cc1ccccc1)NC(=O)[C@H](CCC(N)=O)NC(=O)[C@H](CCC(N)=O)NC(=O)[C@@H]1CCCN1C(=O)[C@H](CCCCN)NC(=O)[C@@H]1CCCN1C(=O)[C@H](CCCNC(=N)N)NC(=O)c1ccc(NN)nc1)C(=O)N[C@@H](CC[S+](C)[O-])C(N)=O (some centres unmarked) [^99mTc-HYNIC-Tyr^8-Met(O)^11-SP, metal not drawn]
tissue uptake at 1 h [1, 3]: 0.34 ± 0.04 %ID/g | tissue uptake at 4 h [1, 3]: 0.26 ± 0.03 %ID/g | tissue uptake at 1 h [1, 4]: 0.46 ± 0.07 %ID/g | tissue uptake at 4 h [1, 4]: 0.32 ± 0.03 %ID/g | tissue uptake at 1 h [1, 5]: 0.63 ± 0.13 %ID/g | tissue uptake at 4 h [1, 5]: 0.26 ± 0.05 %ID/g | tissue uptake at 1 h [1, 6]: 0.81 ± 0.12 %ID/g | tissue uptake at 4 h [1, 6]: 0.32 ± 0.03 %ID/g | %ID/g Blood ([2]; Blood, 1 h p.i., i.v., mean ± SEM, n=3): 1.02±0.16 %ID/g | %ID/g Blood ([2]; Blood, 4 h p.i., i.v., mean ± SEM, n=3): 0.36±0.03 %ID/g | D% Blood ([2]; Blood, decreased percent of %ID/g between 1 h and 4 h): 65% | %ID/g Bone ([2]; Bone, 1 h p.i., i.v., mean ± SEM, n=3): 0.44±0.03 %ID/g | D% Bone ([2]; Bone, decreased percent of %ID/g between 1 h and 4 h): 55% | D% Heart ([2]; Heart, decreased percent of %ID/g between 1 h and 4 h): 68% | D% Kidneys ([2]; Kidneys, decreased percent of %ID/g between 1 h and 4 h): 35% | %ID/g L. intestine ([2]; L. intestine, 1 h p.i., i.v., mean ± SEM, n=3): 1.14±0.09 %ID/g | %ID/g L. intestine ([2]; L. intestine, 4 h p.i., i.v., mean ± SEM, n=3): 1.33±0.28 %ID/g | %ID/g L. intestine ([2]; L. intestine, 24 h p.i., i.v., mean ± SEM, n=3): 0.37±0.06 %ID/g | D% L. intestine ([2]; L. intestine, decreased percent of %ID/g between 1 h and 4 h): -17% | %ID/g Liver ([2]; Liver, 1 h p.i., i.v., mean ± SEM, n=3): 0.58±0.04 %ID/g | %ID/g Liver ([2]; Liver, 4 h p.i., i.v., mean ± SEM, n=3): 0.38±0.05 %ID/g | %ID/g Liver ([2]; Liver, 24 h p.i., i.v., mean ± SEM, n=3): 0.16±0.02 %ID/g | D% Liver ([2]; Liver, decreased percent of %ID/g between 1 h and 4 h): 34% | %ID/g Lung ([2]; Lung, 1 h p.i., i.v., mean ± SEM, n=3): 0.94±0.19 %ID/g | %ID/g Lung ([2]; Lung, 4 h p.i., i.v., mean ± SEM, n=3): 0.33±0.02 %ID/g | %ID/g Lung ([2]; Lung, 24 h p.i., i.v., mean ± SEM, n=3): 0.17±0.04 %ID/g | D% Lung ([2]; Lung, decreased percent of %ID/g between 1 h and 4 h): 65% | %ID/g Muscle ([2]; Muscle, 1 h p.i., i.v., mean ± SEM, n=3): 0.32±0.07 %ID/g | D% Muscle ([2]; Muscle, decreased percent of %ID/g between 1 h and 4 h): 72% | %ID/g S. intestine ([2]; S. intestine, 1 h p.i., i.v., mean ± SEM, n=3): 2.13±0.17 %ID/g | %ID/g S. intestine ([2]; S. intestine, 4 h p.i., i.v., mean ± SEM, n=3): 0.89±0.21 %ID/g | %ID/g S. intestine ([2]; S. intestine, 24 h p.i., i.v., mean ± SEM, n=3): 0.24±0.04 %ID/g | D% S. intestine ([2]; S. intestine, decreased percent of %ID/g between 1 h and 4 h): 58% | %ID/g Salivary G. ([2]; Salivary G., 1 h p.i., i.v., mean ± SEM, n=3): 0.61±0.05 %ID/g | D% Salivary G. ([2]; Salivary G., decreased percent of %ID/g between 1 h and 4 h): 57% | D% Spleen ([2]; Spleen, decreased percent of %ID/g between 1 h and 4 h): 30% | D% Stomach ([2]; Stomach, decreased percent of %ID/g between 1 h and 4 h): 75% | tissue uptake at 1 h ([2]; albino, 330 pmol per mouse, Stomach, 1 h p.i., i.v., mean ± SEM, n=3, read-out: %ID/g Stomach): 1.57 ± 0.13 %ID/g | tissue uptake at 4 h ([2]; albino, 330 pmol per mouse, Stomach, 4 h p.i., i.v., mean ± SEM, n=3, read-out: %ID/g Stomach): 0.39 ± 0.06 %ID/g | tissue uptake at 24 h ([2]; albino, 330 pmol per mouse, Stomach, 24 h p.i., i.v., mean ± SEM, n=3, read-out: %ID/g Stomach): 0.15 ± 0.01 %ID/g | tissue uptake at 4 h ([2]; albino, salivary gland, 330 pmol per mouse, Salivary G., 4 h p.i., i.v., mean ± SEM, n=3, read-out: %ID/g Salivary G.): 0.26 ± 0.02 %ID/g | tissue uptake at 24 h ([2]; albino, salivary gland, 330 pmol per mouse, Salivary G., 24 h p.i., i.v., mean ± SEM, n=3, read-out: %ID/g Salivary G.): 0.2 ± 0.02 %ID/g | tissue uptake at 24 h ([2]; 800 uCi (330 pmol) per mouse, Blood, 24 h p.i., i.v., mean ± SEM, n=3, read-out: %ID/g Blood): 0.14 ± 0.02 %ID/g | tissue uptake at 4 h ([2]; 800 uCi (330 pmol) per mouse, Bone, 4 h p.i., i.v., mean ± SEM, n=3, read-out: %ID/g Bone): 0.2 ± 0.02 %ID/g | tissue uptake at 24 h ([2]; 800 uCi (330 pmol) per mouse, Bone, 24 h p.i., i.v., mean ± SEM, n=3, read-out: %ID/g Bone): 0.07 ± 0.03 %ID/g | tissue uptake at 1 h ([2]; 800 uCi (330 pmol) per mouse, Heart, 1 h p.i., i.v., mean ± SEM, n=3, read-out: %ID/g Heart): 0.55 ± 0.14 %ID/g | tissue uptake at 4 h ([2]; 800 uCi (330 pmol) per mouse, Heart, 4 h p.i., i.v., mean ± SEM, n=3, read-out: %ID/g Heart): 0.17 ± 0.01 %ID/g | tissue uptake at 24 h ([2]; 800 uCi (330 pmol) per mouse, Heart, 24 h p.i., i.v., mean ± SEM, n=3, read-out: %ID/g Heart): 0.06 ± 0.04 %ID/g | tissue uptake at 1 h ([2]; 800 uCi (330 pmol) per mouse, Kidneys, 1 h p.i., i.v., mean ± SEM, n=3, read-out: %ID/g Kidneys): 21.2 ± 0.7 %ID/g | tissue uptake at 4 h ([2]; 800 uCi (330 pmol) per mouse, Kidneys, 4 h p.i., i.v., mean ± SEM, n=3, read-out: %ID/g Kidneys): 13.8 ± 1.96 %ID/g | tissue uptake at 24 h ([2]; 800 uCi (330 pmol) per mouse, Kidneys, 24 h p.i., i.v., mean ± SEM, n=3, read-out: %ID/g Kidneys): 5.47 ± 0.56 %ID/g | tissue uptake at 4 h ([2]; 800 uCi (330 pmol) per mouse, Muscle, 4 h p.i., i.v., mean ± SEM, n=3, read-out: %ID/g Muscle): 0.09 ± 0.03 %ID/g | tissue uptake at 24 h ([2]; 800 uCi (330 pmol) per mouse, Muscle, 24 h p.i., i.v., mean ± SEM, n=3, read-out: %ID/g Muscle): 0.04 ± 0.02 %ID/g | tissue uptake at 1 h ([2]; 800 uCi (330 pmol) per mouse, Spleen, 1 h p.i., i.v., mean ± SEM, n=3, read-out: %ID/g Spleen): 0.4 ± 0.09 %ID/g | tissue uptake at 4 h ([2]; 800 uCi (330 pmol) per mouse, Spleen, 4 h p.i., i.v., mean ± SEM, n=3, read-out: %ID/g Spleen): 0.28 ± 0.06 %ID/g | tissue uptake at 24 h ([2]; 800 uCi (330 pmol) per mouse, Spleen, 24 h p.i., i.v., mean ± SEM, n=3, read-out: %ID/g Spleen): 0.13 ± 0.08 %ID/g
